The target in test [1] is scFv-F052-msFcγ2c.
For test [2], the target named is scFv-D005-msFcγ2c.
Test [3] deals with M2e consensus peptide (free, soluble) (Influenza A virus (consensus of H1, H2 and H3 subtypes of human Influenza A viruses)). The test is described as follows: Friguet ELISA, free M2e peptide in solution.
Test [4] deals with M2e-short (Influenza A virus (consensus)). The test is described as follows: ELISA, apparent affinity, purified scFv-msFcγ2c on immobilised M2e-short. In general terms: In an ELISA, binding on a coated surface is turned into a signal by an enzyme label.

B1: M2e consensus peptide (free, soluble) (peptide)
peptide: SLLTEVETPIRNEWGCRCNDSSD
modifications: not checked
By EC50 is commonly meant the concentration that produces a half-maximal response. As to B1, the half-maximal effective concentration (EC50) in test [1] is 22 µM; in test [2], 18.8 µM.

B2: M2e-short (peptide)
peptide: SLLTEVETPIRNEWGC
modifications: not checked
In the case of B2, the values for the EC50 in test [1] and in test [2] were 46.8 µM and 27.5 µM, respectively.

B3: scFv-F052-msFcγ2c (Fc fusion)
chain: DADPAQAAERVMTQSPDALAVSLGERATINCKSSQSLLYSSNNKNYLAWYQKKPGQPPKLLIYWASTRESGVPDRFSGSGSGTEFTLTINSVQAEDVAVYYCQQYFMTPITFGQGTKLEIKGGSSRSSSSGGGGSGGGGQVQLQESGGALVQPGRSLRLSCRTSGLNFGDYPINWVRQAPGKGLEWVGFIKSKSYGVTTEFAASVEGRFTISRDDSRGIAYLQMNSLKTEDTAVYYCTSSSGFLYYFDYWGQGTLVTVSSASTKGPSVTSGQAGRKLEPRVPITQNPCPPLKECPPCAAPDLLGGPSVFIFPPKIKDVLMISLSPMVTCVVVDVSEDDPDVQISWFVNNVEVHTAQTQTHREDYNSTLRVVSALPIQHQDWMSGKEFKCKVNNRALPSPIEKTISKPRGPVRAPQVYVLPPPAEEMTKKEFSLTCMITGFLPAEIAVDWTSNGRTEQNYKNTATVLDSDGSYFMYSKLRVQKSTWERGSLFACSVVHEGLHNHLTTKTISRSLGK
What is called Kd is the equilibrium constant for the complex coming apart. Read a high Kd as a looser complex. B3: the Kd in test [3] came to 0.005 µM. Moreover, the EC50 in test [4] turned out to be 0.0628 nM.

B4: scFv-D005-msFcγ2c (Fc fusion)
chain: DADPAQAAELVMTQSPDSLAVSLGERATINCKSSQSVLYTSNNKNYLGWYQQKPGQPPNLLIYWASTRESGVPDRFSGSGSGTDFTLTINSVQAEDVAVYYCQQYFMTPITFGQGTRLEIKGGSSRSSSSGGGGSGGGGEVQLVESGGALVQPGRSLRLSCRTSGLNFGDYPINWVRQAPGKGLEWVGFIKSKSYGVTTEFAASVEGRFTISRDDSRGIAYLQMNSLKTEDTAVYYCTSSSGFLYYFDYWGQGTLVTVSSASTKGPSVTSGQAGRKLEPRVPITQNPCPPLKECPPCAAPDLLGGPSVFIFPPKIKDVLMISLSPMVTCVVVDVSEDDPDVQISWFVNNVEVHTAQTQTHREDYNSTLRVVSALPIQHQDWMSGKEFKCKVNNRALPSPIEKTISKPRGPVRAPQVYVLPPPAEEMTKKEFSLTCMITGFLPAEIAVDWTSNGRTEQNYKNTATVLDSDGSYFMYSKLRVQKSTWERGSLFACSVVHEGLHNHLTTKTISRSLGK
On to B4, for which the Kd in test [3] came to 0.004 µM. Further, in test [4], the EC50 came to 0.0809 nM.

The record behind these values is patent publication US20110268740A1.
